One assay addresses T1, BB1 (NMB receptor) (Homo sapiens, UniProt P28336).
T1 construct: expressed in transfected cells
Description: Radioligand displacement binding, recombinant cells expressing BB1 (NMB receptor). The method, then:
(§1) All experimental results were obtained by displacing radiolabeled bombesin from the designated receptor, except for the results obtained for GRP which used radiolabeled GRP. Other receptors used in binding assays include the NMB receptor, the bombesin-receptor subtype 2 (BB2) and the bombesin receptor subtype 3 (BB3). As mentioned above, the biological activities of fluoresceinyl-NMC as well as fluoresceinyl-GRP compounds were determined in non-selective assay by binding to BB1, BB2 and BB3 expressed by rat brain neurons whereas the biological activities of fluoresceinyl-NMB and [Dphe^6, Ala^11, Phe^13, Nle^14]Bbn(6–14) compounds were determined by using recombinant cells expressing the BB1 (NMB receptor) or BB2 and BB3 receptors respectively.
Determination of IC50 for labeled peptides. […] In order to fully dissolve the peptide, the sample was reconstituted in 20 uL DMSO, vortexing well to ensure that all powder was completely dissolved, and then adding 0.48 mL of double distilled water. The stock solution was aliquoted to avoid repeated freezing and thawing of peptide. Unused aliquots were stored at −20° C. (protected from light) for maximum 24 hr. […]
(§2) Data for native and labeled peptides were analyzed by non-linear curve fitting. […]

The next assay addresses BB1, BB2, BB3. Description: Non-selective radioligand displacement binding, rat cerebral cortex / brain neurons. The method, then: Referring now to FIG. 4, a fluoresceinyl-NMC peptide with the amino aid sequence […]NH2 (SEQ ID NO:4) was tested to determine its affinity for NMC receptor sites. The fluoresceinyl-NMC peptide compound absorbs light maximally at 494 nm and features an emission spectrum centered around 518 nm. […] The IC50 is related to the binding constant Ki by the formula IC50=Ki (1+FL/Kd), where FL is the concentration of the free labeled ligand and Kd is the dissociation constant for the labeled ligand.
as §1
Determination of IC50 for labeled peptides. […] In order to fully dissolve the peptide, the sample was reconstituted in 20 uL DMSO, vortexing well to ensure that all powder was completely dissolved, and then adding 0.48 mL of double distilled water. The stock solution was aliquoted to avoid repeated freezing and thawing of peptide. Unused aliquots were stored at −20° C. (protected from light) for maximum 24 hr.
Receptor binding was carried out on tissues of rat cortex homogenate for GRP, recombinant cells expressing BB1 (NMB receptor) for NMB, or recombinant cells expressing BB2 and BB3 for [Dphe^6, Ala^11, Phe^13, Nle^14]Bbn(6–14). […]
as §2

Assay [1] concerns the target bombesin 2 receptor (BB2 or GRP receptor), recombinant cells. Description: radioligand displacement, recombinant cells expressing BB2.
In assay [2] the target is bombesin 3 receptor (BB3 or orphan bombesin receptor), recombinant cells. Briefly: radioligand displacement, recombinant cells expressing BB3.
bombesin 3 receptor (BB3 or orphan bombesin receptor), recombinant cells, sequence (P32247 whole entry): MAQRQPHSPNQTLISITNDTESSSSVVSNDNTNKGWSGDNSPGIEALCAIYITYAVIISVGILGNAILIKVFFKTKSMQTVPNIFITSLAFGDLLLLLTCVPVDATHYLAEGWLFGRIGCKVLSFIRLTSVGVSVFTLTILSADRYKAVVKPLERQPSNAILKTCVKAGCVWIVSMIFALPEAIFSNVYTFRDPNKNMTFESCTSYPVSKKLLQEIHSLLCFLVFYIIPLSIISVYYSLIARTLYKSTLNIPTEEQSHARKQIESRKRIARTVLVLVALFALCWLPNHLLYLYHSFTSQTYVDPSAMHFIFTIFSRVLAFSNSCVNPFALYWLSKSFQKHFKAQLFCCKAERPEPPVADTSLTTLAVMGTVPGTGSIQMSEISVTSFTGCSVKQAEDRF
Assay [3] concerns the target BB1, BB2 and BB3 expressed by rat brain neurons. Description: radioligand displacement (radiolabeled GRP), rat cortex homogenate, non-selective.
The target in assay [4] is bombesin 1 receptor (BB1 or NMB receptor), recombinant cells. Briefly: radioligand displacement, recombinant cells expressing BB1 (NMB receptor).
Assay [5] deals with BB1, BB2 and BB3 expressed by rat brain neurons. Briefly: radioligand displacement (radiolabeled bombesin), rat cerebral cortex, non-selective.
Assay [6] shares this target. Briefly: displacement of radiolabeled bombesin, rat cerebral cortex.

The values below come from patent US7041642B1, “Fluorescent bombesin-like peptides” (PerkinElmer LAS, Inc., priority 1995, dated 2006).

Ends that are not written are not given here. fluorescein = fluorescein label (light-emitting moiety) attached to the peptide

T1 sequence (P28336 whole entry): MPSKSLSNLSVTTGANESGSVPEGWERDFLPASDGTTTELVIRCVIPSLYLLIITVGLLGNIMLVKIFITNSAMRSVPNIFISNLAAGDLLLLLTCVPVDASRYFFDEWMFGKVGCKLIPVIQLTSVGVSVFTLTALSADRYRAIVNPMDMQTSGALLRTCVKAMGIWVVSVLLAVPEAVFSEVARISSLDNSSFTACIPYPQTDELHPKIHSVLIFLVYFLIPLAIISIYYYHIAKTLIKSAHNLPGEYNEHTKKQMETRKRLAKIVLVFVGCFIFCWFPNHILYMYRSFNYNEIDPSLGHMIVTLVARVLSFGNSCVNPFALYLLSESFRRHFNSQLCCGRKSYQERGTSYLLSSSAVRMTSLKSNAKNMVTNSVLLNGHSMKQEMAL

Turning to `CSCC[C@H](NC(=O)[C@H](Cc1ccccc1)NC(=O)[C@H](Cc1cnc[nH]1)NC(=O)CNC(=O)[C@@H](NC(=O)[C@H](C)NC(=O)[C@H](Cc1c[nH]c2ccccc12)NC(=O)[C@H](CC(C)C)NC(=O)[C@H](CC(N)=O)NC(=O)CN)[C@@H](C)O)C(N)=O` [NMB], the Ki on BB1 (NMB receptor) was determined as 0.1 nM.
Take VPLPAGGGTVLTKMYPRGNHWAVGHLM [GRP]: the inhibitory constant (Ki) at BB1, BB2, BB3 (displacement of radiolabeled GRP, BB1, BB2, BB3, rat cortex homogenate) stood at 2 nM.
On to “[Dphe^6, Ala^11, Phe^13, Nle^14]Bbn(6-14) (peptide)”, for which the Ki in assay [1] was determined as 0.17 nM; in assay [2] it was 23 nM.
For the molecule “fluoresceinyl-NMC peptide, sequence Gly-Asn-His-Trp-Ala-Val-Gly-His-Leu-Met-NH2 (SEQ ID NO:4), fluorescein at N-terminus (fluorescein-GNHWAVGHLM-NH2; listed as Sus scrofa) [Fluo*-NMC]”, the Ki at BB1, BB2, BB3 (displacement of radiolabeled bombesin, BB1, BB2, BB3 of rat brain neurons) stood at 3.2 nM. The IC50 on BB1, BB2, BB3 (read-out: IC50 (concentration at which 50% of the binding is inhibited), displacement of radiolabeled bombesin, receptors on rat cerebral cortex neurons) was 3.2 nM.
As for “fluoresceinyl-[Dphe^6, Ala^11, Phe^13, Nle^14]Bbn(6-14) (peptide)”, the results for the Ki in assay [1] and in assay [2] were 0.26 nM and 86 nM, respectively.
Take VPLPAGGGTVLTKMYPRGNHWAVGHLM-NH2 [GRP]: in assay [3], the Ki stood at 2 nM.
In assay [3], {fluorescein (carboxylic form)}-VPLPAGGGTVLTKMYPRGNHWAVGHLM-NH2 [fluoresceinyl-GRP] yielded a Ki of 32 nM.
Take GNLWATGHFM-NH2 [NMB]: the Ki in assay [4] was 0.1 nM.
The molecule {fluorescein (carboxylic form)}-GNHWAVGHLM-NH2 [fluoresceinyl-NMC peptide] had an inhibition constant (Ki) in assay [5] of 3.2 nM. Also, the IC50 in assay [6] came out at 3.2 nM.
For the molecule {fluorescein (carboxylic form)}-GNLWATGHFM-NH2 [fluoresceinyl-NMB], the Ki in assay [4] came out at 7 nM.
